In IntAct's records for PubMed 16330715:

B1: Neutrophil cytosol factor 1 (Homo sapiens), P14598 (parent)
chain: MGDTFIRHIALLGFEKRFVPSQHYVYMFLVKWQDLSEKVVYRRFTEIYEFHKTLKEMFPIEAGAINPENRIIPHLPAPKWFDGQRAAENRQGTLTEYCSTLMSLPTKISRCPHLLDFFKVRPDDLKLPTDNQTKKPETYLMPKDGKSTATDITGPIILQTYRAIANYEKTSGSEMALSTGDVVEVVEKSESGWWFCQMKAKRGWIPASFLEPLDSPDETEDPEPNYAGEPYVAIKAYTAVEGDEVSLLEGEAVEVIHKLLDGWWVIRKDDVTGYFPSMYLQKSGQDVSQAQRQIKRGAPPRRSSIRNAHSIHQRSRKRLSQDAYRRNSVRFLQQRRRQARPGPQSPGSPLEEERQTQRSKPQPAVPPRPSADLILNRCSESTKRKLASAV

Variants of: B1
Details: with fak2_human PTK2B

effect of a mutation on the interaction	Variant
disrupting interaction strength	MGDTFIRHIALLGFEKRFVPSQHYVYMFLVKWQDLSEKVVYRRFTEIYEFHKTLKEMFPIEAGAINPENRIIPHLPAPKWFDGQRAAENRQGTLTEYCSTLMSLPTKISRCPHLLDFFKVRPDDLKLPTDNQTKKPETYLMPKDGKSTATDITGPIILQTYRAIANYEKTSGSEMALSTGDVVEVVEKSESGRWFCQMKAKRGWIPASFLEPLDSPDETEDPEPNYAGEPYVAIKAYTAVEGDEVSLLEGEAVEVIHKLLDGWWVIRKDDVTGYFPSMYLQKSGQDVSQAQRQIKRGAPPRRSSIRNAHSIHQRSRKRLSQDAYRRNSVRFLQQRRRQARPGPQSPGSPLEEERQTQRSKPQPAVPPRPSADLILNRCSESTKRKLASAV [W193R]
increasing interaction strength	MGDTFIRHIALLGFEKRFVPSQHYVYMFLVKWQDLSEKVVYRRFTEIYEFHKTLKEMFPIEAGAINPENRIIPHLPAPKWFDGQRAAENRQGTLTEYCSTLMSLPTKISRCPHLLDFFKVRPDDLKLPTDNQTKKPETYLMPKDGKSTATDITGPIILQTYRAIANYEKTSGSEMALSTGDVVEVVEKSESGWWFCQMKAKRGWIPASFLEPLDSPDETEDPEPNYAGEPYVAIKAYTAVEGDEVSLLEGEAVEVIHKLLDGWWVIRKDDVTGYFPSMYLQKSGQDVSQAQRQIKRGAPPRRDDIRNAHSIHQRSRKRLSQDAYRRNDVRFLQQRRRQARPGPQSPGSPLEEERQTQRSKPQPAVPPRPSADLILNRCSESTKRKLASAV [S303D;S304D;S328D]
